# Assays:
# [1] = target: apo-SOD1(C6A) (human); assay: not stated; Zn2+-bound SOD1(WT, C6A) before and after oxidation with H2O2; Figure S7, method not given
# [2] = target: apo-SOD1(C6A) (human); assay: SEC-MALS; gel filtration of 20 μM apo protein in MN buffer (100 mM MOPS, 50 mM NaCl, pH 7.0), before or after treatment with 10 mM H2O2, monitored at 280 nm, masses by MALS
# [3] = target: apo-SOD1(C6A) (human); assay: native MS; mass spectra of apo-SOD1(C6A) under native conditions, before and after treatment with H2O2; spectra normalized to the 11+ charge state of the dimer
# [4] = target: H2O2-oxidized SOD1(C6A) (Cys111 sulfonylated) (human); assay: not stated; Zn2+-bound SOD1(WT, C6A) before and after oxidation with H2O2; Figure S7, method not given
stoichiometry N [1],stoichiometry N [2],stoichiometry N [3],stoichiometry N [4],Substance
2,2,2,–,apo-SOD1(C6A) (enzyme)
–,–,–,2,H2O2-oxidized SOD1(C6A) (Cys111 sulfonylated) (enzyme)

# — article PMC12529874
